Columns and labels:
[1] = biological target: Human surfactant protein-A (SP-A) (human) (UniProt Q8IWL2); assay: SEC; gel filtration HPLC, two Biosep-SEC-S 4000 columns in series; SP-A (1.62 mg/ml) and α1-AT (1 mg/ml), 1:50 molar ratio, incubated 24 hrs at 37°C in phosphate buffer; eluted with 100 mM Na2HPO4, 2 mM CaCl2, pH 6.8
[2] = biological target: Human surfactant protein-A (SP-A) (human) (UniProt Q8IWL2)

- stoichiometry N (molecules of α1-AT per molecule of SP-A) [1]: 18
- turnover number per inactivation of HNE, unmodified SP-A with α1-AT [2]: 24
Substance: Wild-type α1-antitrypsin (M α1-AT) (from UniProt P01009 25-418) (natural protein)
